From patent publication US20200024357A1 (published 2020) come the findings set out here.

For the test, the target named is T1, human CD39 (vascular CD39, NTPDase1, ENTPD1) expressed at the cell surface (human, UniProt P49961 1-510).
T1 construct: also called huCD39; CHO-huCD39
T1 sequence: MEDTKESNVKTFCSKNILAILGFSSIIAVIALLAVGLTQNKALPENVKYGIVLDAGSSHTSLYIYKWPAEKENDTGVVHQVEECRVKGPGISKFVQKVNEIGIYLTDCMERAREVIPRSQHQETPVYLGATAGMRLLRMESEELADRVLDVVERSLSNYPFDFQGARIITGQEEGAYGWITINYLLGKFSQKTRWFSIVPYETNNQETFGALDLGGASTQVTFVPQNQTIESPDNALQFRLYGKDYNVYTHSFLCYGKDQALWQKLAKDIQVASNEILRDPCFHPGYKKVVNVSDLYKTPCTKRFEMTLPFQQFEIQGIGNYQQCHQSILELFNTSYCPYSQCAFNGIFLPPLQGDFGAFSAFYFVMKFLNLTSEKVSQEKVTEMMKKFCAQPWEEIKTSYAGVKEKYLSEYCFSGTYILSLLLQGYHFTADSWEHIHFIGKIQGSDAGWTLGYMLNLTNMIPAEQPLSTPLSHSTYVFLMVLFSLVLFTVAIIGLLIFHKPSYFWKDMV
Nature of the test: flow cytometry on CHO cells expressing human CD39. The protocol:
Cells were incubated with various concentration of unlabeled anti-CD39 antibody from 30 μg/ml to 5×10-⁴ μg/ml, for 30 minutes at 4° C. After washes, cells were incubated with Goat anti-mouse H+L labeled secondary antibody for 30 min at 4° C.
Antibodies mAb1-21 were assessed for binding to CD39 by flow cytometry as described in Example 7, using CHO cells expressing human CD39 and CHO cells expressing cynomolgus (Macaca fascicularis) CD39.

B1: mAb20 H4L1 (antibody, human IgG1, kappa, V domains shown)
VH: QVQLVQSGAEVKKPGASVKVSCKASGYTFTDYNMHWVRQAPGQRLEWIGYIVPLNGGSTFNQKFKGRATITVDTSARTAYMELSSLRSEDTAVYYCARGGTRFAYWGQGTLVTVSS
VL: DIVMTQSPDSLAVSLGERATINCRASESVDNFGVSFMYWFQQKPGQPPKLLIYGASNQGSGVPDRFSGSGSGTDFTLTISSLQAEDVAVYYCQQTKEVPYTFGGGTKVEIKR
notes: The full heavy chain carries L234A/L235E/G237A/A330S/P331S
Regarding B1, the binding result is reported as “binds”.
